Paper PMC3351156 (Nucleic Acids Research, 2012)
Read-outs that look alike come from different tables or passages of the source. One block for each molecule: values may come before it. Non-standard residues stand in square brackets, D forms with d. No end group written: not given here. pT = C[C@@H](OP(=O)(O)O)[C@H](N)C(=O)O

B1: MDC1^27–138 (MDC1 FHA domain, residues 27–138) (domain or fragment, UniProt Q14676 27-138, looked up)
chain: NVEPVGRLHIFSGAHGPEKDFPLHLGKNVVGRMPDCSVALPFPSISKQHAEIEILAWDKAPILRDCGSLNGTQILRPPKVLSPGVSHRLRDQELILFADLLCQYHRLDVSLP
B3: MDC1^2–133 (unphosphorylated) (domain or fragment, UniProt Q14676 2-133, looked up)
chain: EDTQAIDWDVEEEEETEQSSESLRCNVEPVGRLHIFSGAHGPEKDFPLHLGKNVVGRMPDCSVALPFPSISKQHAEIEILAWDKAPILRDCGSLNGTQILRPPKVLSPGVSHRLRDQELILFADLLCQYHRL

Legend:
[1] = molecular target: Mutator 2 FHA domain (Drosophila melanogaster) (Drosophila melanogaster)
SEC [2] = molecular target: the molecule itself; assay: SEC
AUC [3] = molecular target: the molecule itself; assay: AUC
AUC [4] = molecular target: the molecule itself; assay: AUC; remark: listed apart in the source
SEC [5] = molecular target: the molecule itself; assay: SEC; remark: listed apart in the source
SEC [6] = molecular target: the molecule itself; assay: SEC; remark: listed apart in the source
SMT3-MDC1^2–133-T98A = molecular target: T1, SMT3-MDC1^2–133-T98A (UniProt Q14676 2-133, T98A); assay: ITC
T1 sequence (looked up): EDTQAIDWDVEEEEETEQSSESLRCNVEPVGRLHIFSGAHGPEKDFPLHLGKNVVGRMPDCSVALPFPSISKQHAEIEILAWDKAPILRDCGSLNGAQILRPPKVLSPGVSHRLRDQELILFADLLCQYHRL

[7] = molecular target: B1; assay: ITC
[8] = molecular target: B3; assay: AUC

stoichiometry N [1]: 2
Molecule: Mutator 2 FHA domain (Drosophila melanogaster) (domain or fragment)

Molecule: B1
stoichiometry N (SEC [2]): 2

B2: pT4-MDC1^2–133 (T4-phosphorylated MDC1^2–133) (domain or fragment, UniProt Q14676 2-133, looked up)
chain: EDTQAIDWDVEEEEETEQSSESLRCNVEPVGRLHIFSGAHGPEKDFPLHLGKNVVGRMPDCSVALPFPSISKQHAEIEILAWDKAPILRDCGSLNGTQILRPPKVLSPGVSHRLRDQELILFADLLCQYHRL
modifications: phosphothreonine at 4
Kd (AUC [3]): 0.035 µM

Molecule: B3
Kd (AUC [4]): 16 µM | Kd (AUC [3]): 9.2 µM

B4: pT4-MDC1^2–133-R58A (domain or fragment, UniProt Q14676 2-133, looked up)
chain: EDTQAIDWDVEEEEETEQSSESLRCNVEPVGRLHIFSGAHGPEKDFPLHLGKNVVGAMPDCSVALPFPSISKQHAEIEILAWDKAPILRDCGSLNGTQILRPPKVLSPGVSHRLRDQELILFADLLCQYHRL
modifications: phosphothreonine at 4
binding result (SEC [5]): binds

Molecule: NIIGRHTNCDVTLPAQSVSKKHAIIEVEADCHTLCDQGSLNKTRRGKAAI (domain or fragment) [FHA domain of Xenopus tropicalis MDC1]
stoichiometry N (SEC [6]): 2

fold reduction of binding affinity against SMT3-MDC1^2–133 (SMT3-MDC1^2–133-T98A): 7 fold | Kd [7]: 40 ± 3 µM | Kd [8]: 20 µM
Molecule: MED[pT]QAID [phosphopeptide MED(pT)QAID (pT4-8P)]
